Source: the supplement of paper PMC9112550, “Optimization of the antimicrobial peptide Bac7 by deep mutational scanning” (BMC Biology, 2022)

What follows are sequences tested on Escherichia coli TOP10 (assay: shrunken log2 fold change of peptide-encoding DNA abundance (4.5 h post-induction vs induction); higher = less antimicrobial activity (less host growth inhibition)). Conditions: time post-induction: 4.5 h; library: site-saturation at positions 5, 18, 19, 20.
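Note: peptides expressed intracellularly from a pBAD plasmid library in pooled LB shake-flask culture, induced with 0.3% L-arabinose, DNA abundance read by NGS, three biological replicates, DESeq2 with apeglm shrinkage.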

First: RRIRMRPPRLPRPRPRPFLFPRP
Second: RRIRHRPPRLPRPRPRPKQDPRP
The “shrunken log2 fold change” value of the first is higher: 0.0343 for the first, -0.557 for the second.

Compared with RRIRRRPPRLPRPRPRPHSSPRP, RRIRMRPPRLPRPRPRPEWAPRP is higher in “shrunken log2 fold change” value: -0.00646 for the first, 1.36 for the second.

First: RRIRNRPPRLPRPRPRPLSRPRP
Second: RRIRKRPPRLPRPRPRPYYHPRP
The “shrunken log2 fold change” value of the first is lower: -0.124 for the first, 0.158 for the second.

Going from RRIRMRPPRLPRPRPRPMNWPRP to RRIRARPPRLPRPRPRPTTSPRP, the “shrunken log2 fold change” value rises from -0.117 to 0.292.

Going from RRIRCRPPRLPRPRPRPHPVPRP to RRIRIRPPRLPRPRPRPTQTPRP, the “shrunken log2 fold change” value rises from -0.207 to 0.0595.

RRIRDRPPRLPRPRPRPQWDPRP and RRIRRRPPRLPRPRPRPKLSPRP are within 0.2 log units of each other in “shrunken log2 fold change” value: 0.101 for the first, 0.262 for the second.

Going from RRIRCRPPRLPRPRPRPGVWPRP to RRIRFRPPRLPRPRPRPMAPPRP, the “shrunken log2 fold change” value falls from 0.537 to 0.114.

Compared with RRIRVRPPRLPRPRPRPMMWPRP, RRIRRRPPRLPRPRPRPAICPRP is higher in “shrunken log2 fold change” value: -0.368 for the first, 0.134 for the second.

RRIRDRPPRLPRPRPRPHRRPRP and RRIRNRPPRLPRPRPRPHHAPRP are within 0.2 log units of each other in “shrunken log2 fold change” value: -0.247 for the first, -0.0601 for the second.

Going from RRIRTRPPRLPRPRPRPWVWPRP to RRIRYRPPRLPRPRPRPLGIPRP, the “shrunken log2 fold change” value falls from 0.166 to -0.576.

Going from RRIRHRPPRLPRPRPRPDNWPRP to RRIRFRPPRLPRPRPRPMPPPRP, the “shrunken log2 fold change” value rises from -0.335 to 0.55.

Going from RRIRVRPPRLPRPRPRPNVWPRP to RRIRERPPRLPRPRPRPCNNPRP, the “shrunken log2 fold change” value falls from 0.0782 to -0.768.

Going from RRIRIRPPRLPRPRPRPLNQPRP to RRIRARPPRLPRPRPRPTWMPRP, the “shrunken log2 fold change” value rises from -0.195 to 0.221.

Going from RRIRDRPPRLPRPRPRPAFRPRP to RRIRTRPPRLPRPRPRPQGFPRP, the “shrunken log2 fold change” value falls from 0.293 to 0.0424.

Going from RRIRPRPPRLPRPRPRPNQQPRP to RRIRFRPPRLPRPRPRPYPFPRP, the “shrunken log2 fold change” value falls from 0.0352 to -0.69.

RRIRMRPPRLPRPRPRPPVRPRP and RRIRVRPPRLPRPRPRPPNWPRP are within 0.2 log units of each other in “shrunken log2 fold change” value: 0.458 for the first, 0.293 for the second.

Going from RRIRPRPPRLPRPRPRPSAGPRP to RRIRDRPPRLPRPRPRPMEDPRP, the “shrunken log2 fold change” value falls from 0.243 to -0.0288.

First: RRIRDRPPRLPRPRPRPHERPRP
Second: RRIRPRPPRLPRPRPRPMHEPRP
The “shrunken log2 fold change” value of the first is lower: 0.0603 for the first, 0.297 for the second.

RRIRKRPPRLPRPRPRPEMMPRP and RRIRQRPPRLPRPRPRPGQHPRP are within 0.2 log units of each other in “shrunken log2 fold change” value: 0.113 for the first, -0.0301 for the second.

First: RRIRLRPPRLPRPRPRPINKPRP
Second: RRIRMRPPRLPRPRPRPNPSPRP
The “shrunken log2 fold change” value of the first is lower: -0.617 for the first, 0.758 for the second.

Going from RRIRNRPPRLPRPRPRPCAVPRP to RRIRGRPPRLPRPRPRPRVMPRP, the “shrunken log2 fold change” value rises from -0.273 to 0.473.

First: RRIRGRPPRLPRPRPRPYIKPRP
Second: RRIRFRPPRLPRPRPRPVATPRP
The “shrunken log2 fold change” value of the first is lower: -0.164 for the first, 0.547 for the second.

First: RRIRFRPPRLPRPRPRPERPPRP
Second: RRIRIRPPRLPRPRPRPDVVPRP
The “shrunken log2 fold change” value of the first is higher: 0.415 for the first, -0.0365 for the second.

First: RRIRTRPPRLPRPRPRPKALPRP
Second: RRIRHRPPRLPRPRPRPFPAPRP
The “shrunken log2 fold change” value of the first is higher: 0.293 for the first, -0.405 for the second.

Going from RRIRWRPPRLPRPRPRPKFTPRP to RRIRGRPPRLPRPRPRPKCVPRP, the “shrunken log2 fold change” value rises from -0.119 to 0.505.

Going from RRIRPRPPRLPRPRPRPECRPRP to RRIRARPPRLPRPRPRPIWWPRP, the “shrunken log2 fold change” value falls from 0.56 to -0.00662.

Compared with RRIRYRPPRLPRPRPRPTPTPRP, RRIRYRPPRLPRPRPRPPDNPRP is lower in “shrunken log2 fold change” value: 0.451 for the first, -0.185 for the second.

RRIRQRPPRLPRPRPRPTPTPRP and RRIRSRPPRLPRPRPRPGFRPRP are within 0.2 log units of each other in “shrunken log2 fold change” value: 0.336 for the first, 0.165 for the second.

Compared with RRIRGRPPRLPRPRPRPRDLPRP, RRIRSRPPRLPRPRPRPNQFPRP is lower in “shrunken log2 fold change” value: 0.473 for the first, -0.232 for the second.

RRIRYRPPRLPRPRPRPFRWPRP and RRIRYRPPRLPRPRPRPETLPRP are within 0.2 log units of each other in “shrunken log2 fold change” value: -0.14 for the first, -0.0879 for the second.
